# Measured values reported in patent publication US20260146077A1 (US Dept. of Health and Human Services, published 2026).
# Residue numbers refer to the chain shown, from its start.
# B1: A23-58.1HC/58.1LC_94GLTG (antibody, V domains shown)
# VH: not shown
# VL: EIVLTQSPGTLSLSPGERATLSCRASQSVSSSYLAWYQQKPGQAPRLLIYSASSRATGIPDRFSGSGSGTDFTLTISRLEPEDFAVYFCQQYGGLTGWTFGQGTKVEIK
# B2: S2E12 (antibody, V domains shown)
# VH: not shown
# VL: B1 VL with E1D, S7T, S51G, F88Y, G93V
# B3: A23-58.1HC_Y100cA/S2E12LC (antibody, V domains shown)
# VH: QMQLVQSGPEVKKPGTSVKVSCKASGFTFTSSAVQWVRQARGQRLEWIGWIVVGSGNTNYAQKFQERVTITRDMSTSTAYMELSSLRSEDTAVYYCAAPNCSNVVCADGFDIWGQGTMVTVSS
# VL: B1 VL with E1D, S7T, S51G, F88Y, G93V
# B4: A23-58.1HC/58.1LC_93VGLTG (antibody, V domains shown)
# VH: not shown
# VL: B1 VL with G93V
# B5: B1-182.1HC_F100cS/S2E12LC (antibody, V domains shown)
# VH: not shown
# VL: B1 VL with E1D, S7T, S51G, F88Y, G93V
# B6: B1-182.1HC/S2E12LC (antibody, V domains shown)
# VH: not shown
# VL: B1 VL with E1D, S7T, S51G, F88Y, G93V
# B7: A23-58.1HC/58.1LC_94GLT (antibody, V domains shown)
# VH: not shown
# VL: EIVLTQSPGTLSLSPGERATLSCRASQSVSSSYLAWYQQKPGQAPRLLIYSASSRATGIPDRFSGSGSGTDFTLTISRLEPEDFAVYFCQQYGGLTWTFGQGTKVEIK
# Target: T1, SARS-CoV-2 spike protein, BA.1 (SARS-CoV-2, UniProt P0DTC2 14-1273)
# Assay: cell-based or functional assay
Binder,"BA.1 neutralization, fold improvement over A19-58.1 [fold]",fold loss in neutralization [fold loss],pseudovirus neutralization IC50 [ng/mL],"BA.1 neutralization, fold improvement over B1-182.1 [fold]"
B1,> 27,–,–,–
B2,–,< 10,8.8,–
B3,20,–,–,–
B4,> 30,–,–,–
B5,–,–,–,> 14
B6,–,–,–,20
B7,7,–,13.7,–

# Target: T2, SARS-CoV-2 spike protein, BA.2.12.1 (SARS-CoV-2, UniProt P0DTC2 14-1273)
# Assay: cell-based or functional assay
row,Binder,pseudovirus neutralization IC50 [ng/mL]
1,B7,25

# Target: SARS-CoV-2 spike protein, B.1.617.2 (SARS-CoV-2, UniProt P0DTC2 14-1273)
# Assay: cell-based or functional assay
Binder,neutralization IC50 [ng/mL],neutralization IC80 [ng/mL]
B1,2.9,11.2
B2,1.2,2.6
B3,2.9,7.8
B4,5.8,12.4
B5,1.2,3.3
B6,1.1,2.9

# Target: SARS-CoV-2 spike protein, B.1.351 (SARS-CoV-2, UniProt P0DTC2 14-1273)
# Assay: cell-based or functional assay
Binder,neutralization IC50 [ng/mL],neutralization IC80 [ng/mL]
B1,1.8,4.4
B2,3.9,8.7
B3,2.6,5.9
B4,2.7,5
B5,1.5,4.4
B6,0.8,4.4

# Target: T1, SARS-CoV-2 spike protein, BA.1
# Assay: cell-based or functional assay
# Remark: another data set of the same source
Binder,neutralization IC50 [ng/mL],neutralization IC80 [ng/mL]
B1,3.6,11.9
B2,–,38.5
B3,4.9,26.1
B4,3.3,11.2
B5,13.9,51.6
B6,9.9,45.2
B7,–,46.4

# Target: SARS-CoV-2 spike protein, BA.1.1 (SARS-CoV-2, UniProt P0DTC2 14-1273)
# Assay: cell-based or functional assay
Binder,neutralization IC50 [ng/mL],neutralization IC80 [ng/mL]
B2,15.5,55.4
B3,4.4,13.1
B5,8.4,20
B6,4.7,24.2

# Target: BA.2.75
# Assay: cell-based or functional assay
Binder,neutralization IC50 [ng/mL],neutralization IC80 [ng/mL]
B1,1,3.1
B4,0.9,3

# Target: BA.4.6
# Assay: cell-based or functional assay
Binder,neutralization IC50 [ng/mL],neutralization IC80 [ng/mL]
B1,4.2,15.7
B4,4.1,14.8

# Target: SARS-CoV-2 spike protein, BA.2 (SARS-CoV-2, UniProt P0DTC2 14-1273)
# Assay: cell-based or functional assay
Binder,neutralization IC50 [ng/mL],neutralization IC80 [ng/mL]
B2,9.9,48.2
B3,8.4,38.4
B5,9.4,31.7
B6,6.3,28

# Target: T2, SARS-CoV-2 spike protein, BA.2.12.1
# Assay: cell-based or functional assay
# Remark: another data set of the same source
Binder,neutralization IC50 [ng/mL],neutralization IC80 [ng/mL]
B1,1.9,9.2
B2,15.6,46.6
B3,35.1,142
B4,3.4,11.5
B5,14.9,54.2
B6,11.5,35
B7,–,105
